Patent US20160046728

Tested on: Ir-CPI (Ixodes ricinus Contact Phase Inhibitor), recombinant

## factor IXa
  amidolytic activity on chromogenic substrate (protease:Ir-CPI 1:5): The results obtained did not show any effect of Ir-CPI protein on the amidolytic activity of these factors

## factor XIa
  activation of factor XII into factor XIIa by factor XIa (reconstituted system, purified factors, chromogenic substrate): Ir-CPI inhibits ... the activation of factor XII into factor XIIa by factor XIa
  amidolytic activity on chromogenic substrate (protease:Ir-CPI 1:5): The results obtained did not show any effect of Ir-CPI protein on the amidolytic activity of these factors

## plasma kallikrein
  activation of factor XII into factor XIIa by kallikrein (reconstituted system, purified factors, chromogenic substrate): Ir-CPI did not inhibit the activation of factor XII into factor XIIa by kallikrein
  amidolytic activity on chromogenic substrate (protease:Ir-CPI 1:5): The results obtained did not show any effect of Ir-CPI protein on the amidolytic activity of these factors

## thrombin
  amidolytic activity on chromogenic substrate (protease:Ir-CPI 1:5): The results obtained did not show any effect of Ir-CPI protein on the amidolytic activity of these factors
